Tests used:
[1] = molecular target: T1, human HER2 (1129-ER, R&D Systems) (human, UniProt P04626 23-652); experiment: SPR; HER2 captured with the anti-human Fc antibody, antibody constructs as analytes (method in paragraph 368); FIG. 5A-5B
T1 construct: also called Receptor tyrosine-protein kinase erbB-2
Protocol: (§1) Surface plasmon resonance (SPR) was used to assess the binding of antigens to antibody. Binding of antigens to the antibody constructs was measured using surface plasmon resonance (SPR) with a BIAcore 3000 instrument (GE Healthcare) with HBS-EP buffer (GE Healthcare). Human IL4 (IL004, Millipore) and human IL13 (IL012, Millipore), human HER2 (1129-ER, R&D Systems), human TNFa (H8916, SIGMA Aldrich), human CTLA4 (CT4-H5229, ACRO Biosystems), human PD-1 (8986-PD, R&D Systems), and human IL6Ra (227-SR/CF, R&D Systems) were used as antigens. The anti-human Fc capture antibody (human antibody capture kit, GE Life Sciences) was immobilized via primary amine groups (11000 RU) on a research grade CM5 chip (GE Life Sciences) using standard procedures. […] Binding tests with HER2 was performed by capture of the antigen with the anti-human Fc antibody. The tested antibody constructs were used as analytes and injected at 100 nM concentration for 240 sec with a dissociation time of 300 sec at a flow rate of 30 μL/min. Binding kinetics measurements were done using the captured antibodies with injects of two-fold serial dilutions of the analytes of 3 nM to 100 nM. […] Chip surfaces were regenerated with 2 min injects of the regeneration buffer provided with the capture kit. Sensorgrams were double referenced with a blank chip surface and HBS-EP buffer blanks. Data analysis was performed using the BIAevaluation software v4.1.

[2] = molecular target: T2, Human IL4 (IL004, Millipore) (human, UniProt P05112 25-153); experiment: SPR, BIAcore 3000; antibody captured by anti-human Fc, antigen as analyte
T2 sequence (looked up): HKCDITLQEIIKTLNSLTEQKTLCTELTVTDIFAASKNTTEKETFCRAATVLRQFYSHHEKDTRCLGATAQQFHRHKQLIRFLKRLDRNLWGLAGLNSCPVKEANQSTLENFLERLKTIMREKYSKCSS
Protocol: as §1

[3] = molecular target: T2, Human IL4 (IL004, Millipore); experiment: SPR, BIAcore 3000; antibody captured by anti-human Fc, antigen as analyte; column head says nM, but kd/ka gives M
Protocol: as §1

[4] = molecular target: T3, human IL13 (IL012, Millipore) (human, UniProt P35225 35-146); experiment: SPR, BIAcore 3000; antibody captured by anti-human Fc, antigen as analyte
T3 sequence (P35225 35-146 limits assumed): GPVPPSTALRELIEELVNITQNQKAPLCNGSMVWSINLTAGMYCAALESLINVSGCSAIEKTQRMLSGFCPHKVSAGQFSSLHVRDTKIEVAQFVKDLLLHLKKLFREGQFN
Protocol: as §1

[5] = molecular target: T3, human IL13 (IL012, Millipore); experiment: SPR, BIAcore 3000; antibody captured by anti-human Fc, antigen as analyte; column head says nM, but kd/ka gives M
Protocol: as §1

[6] = molecular target: T3, human IL13 (IL012, Millipore); experiment: SPR, BIAcore 3000; antibody captured by anti-human Fc, antigen as analyte; the mark X is not explained
Protocol: as §1, with “Data analysis was performed using the BIAevaluation software v4.1.” left out

[7] = molecular target: T1, human HER2 (1129-ER, R&D Systems); experiment: SPR (BIAcore 3000), binding test with HER2 captured by the anti-human Fc antibody, constructs injected at 100 nM; response as % of theoretical Rmax
[8] = molecular target: CD123 on THP-1 target cells (UniProt P26951 19-378, limits assumed); experiment: cell-based or functional assay
[9] = molecular target: T4, human CD123-Fc-His fusion protein (internal source) (human, UniProt P26951 19-305); experiment: SPR, Biacore 8K; CD123-Fc-His captured by anti-His, antibody as analyte, 1:1 Langmuir fit
T4 construct: not shown: Fc and His tag
T4 sequence (looked up): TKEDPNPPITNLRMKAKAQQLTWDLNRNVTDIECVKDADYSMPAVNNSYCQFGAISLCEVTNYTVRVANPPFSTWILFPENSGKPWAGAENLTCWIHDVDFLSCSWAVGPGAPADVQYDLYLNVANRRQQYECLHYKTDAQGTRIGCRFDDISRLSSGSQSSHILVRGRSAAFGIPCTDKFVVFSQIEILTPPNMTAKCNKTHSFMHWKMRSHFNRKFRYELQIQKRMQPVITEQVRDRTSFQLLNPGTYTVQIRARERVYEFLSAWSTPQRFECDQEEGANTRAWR
Protocol: Binding of antigens to the antibody constructs was measured using surface plasmon resonance (SPR) with a BIAcore 8K instrument (GE Healthcare) with HBS-EP+ buffer (GE Healthcare). For binding kinetics and affinity determination human CD3εδ-Fc-His and human CD123-Fc-His fusion proteins (both from internal source) were used as antigens. The anti-His capture antibody (His capture kit, GE Life Sciences) was immobilized via primary amine groups (11000 RU) on a research grade CM5 chip (GE Life Sciences) using standard procedures. Antigens were captured by the anti-His capture chip surface at a flow rate of 10 μL/min for 90 sec to reach antibody binding levels between 10 and 30 RU. […] Dissociation was measured at 30 μL/min by injection of HBS-EP+ buffer for 1200 sec. The chip surface was regenerated by inject of regeneration buffer (His capture kit, GE Life Sciences). Sensorgrams were double referenced with a blank chip surface and H BS-EP+ buffer blanks. Data were fitted with a 1:1 Langmuir binding model for determination of kinetic and affinity constants ka, kd and KD using Biacore 8K Evaluation software v1.11.7442 (GE Healthcare).

[10] = molecular target: T5, human PD-1 (8986-PD, R&D Systems) (human, UniProt Q15116 25-167); experiment: SPR, BIAcore 3000; antibody captured by anti-human Fc, antigen as analyte
T5 sequence (Q15116 25-167 limits assumed): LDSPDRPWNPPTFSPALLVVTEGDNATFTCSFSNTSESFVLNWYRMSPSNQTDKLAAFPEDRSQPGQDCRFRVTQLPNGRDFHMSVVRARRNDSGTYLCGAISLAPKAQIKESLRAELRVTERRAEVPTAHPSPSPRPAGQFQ
Protocol: as §1

[11] = molecular target: T5, human PD-1 (8986-PD, R&D Systems); experiment: SPR, BIAcore 3000; antibody captured by anti-human Fc, antigen as analyte; column head says nM, but kd/ka gives M
Protocol: as §1

B1: dsTrasKO variant 1 (dsTrasKO1) (antibody, V domains shown)
VH: EVQLVESGGGLVQPGGSLRLSCAASGFNIKDTAIHWVRQAPGKCLEWVAEIYPTNGYTEYADSVKGRFTISADTSKNTAYLQMNSLRAEDTAVYYCSRWGGDGFAAMDYWGQGTLVTVSS
VL: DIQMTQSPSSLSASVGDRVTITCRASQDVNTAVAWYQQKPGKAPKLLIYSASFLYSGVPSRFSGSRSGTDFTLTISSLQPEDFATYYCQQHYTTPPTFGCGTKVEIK
notes: also called dsTrastuKO variant 1; Variant1 (TrasKO1) with VH44C/VL100C disulfide
binding result [1]: no binding (tested: 100 nM)

B2: dsTrasKO variant 2 (dsTrasKO2) (antibody, V domains shown)
VH: EVQLVESGGGLVQPGGSLRLSCAASGFNIKDTYIHWVRQAPGKCLEWVAEIYPTNGYTEYADSVKGRFTISADTSKNTAYLQMNSLRAEDTAVYYCSRWGGDGFYAMDYWGQGTLVTVSS
VL: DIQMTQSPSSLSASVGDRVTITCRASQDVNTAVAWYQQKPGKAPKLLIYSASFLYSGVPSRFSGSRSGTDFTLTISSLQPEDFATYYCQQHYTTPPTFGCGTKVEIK
notes: also called dsTrastuKO variant 2; Variant2 (TrasKO2) with VH44C/VL100C disulfide
binding result [1]: no binding (tested: 100 nM)

B3: dsTrasKO variant 3 (dsTrasKO3) (antibody, V domains shown)
VH: EVQLVESGGGLVQPGGSLRLSCAASGFNIKDTAIHWVRQAPGKCLEWVARIYPTNGYTRYADSVKGRFTISADTSKNTAYLQMNSLRAEDTAVYYCSRWGGDGFAAMDYWGQGTLVTVSS
VL: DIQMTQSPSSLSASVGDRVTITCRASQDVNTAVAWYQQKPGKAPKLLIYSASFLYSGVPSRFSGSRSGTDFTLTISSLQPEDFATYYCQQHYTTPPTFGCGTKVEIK
notes: also called dsTrastuKO variant 3; Variant3 (TrasKO3) with VH44C/VL100C disulfide
binding result [1]: no binding (tested: 100 nM)

B4: IL4 mAb (ID 18, anti-IL4-VL1-IGKC / anti-IL4-VH1-IgG1) (antibody, V domains shown)
VH: QVQLQQSGPELVKPGASVKISCKASGYSFTSYWIHWIKQRPGQGLEWIGMIDPSDGETRLNQRFQGRATLTVDESTSTAYMQLRSPTSEDSAVYYCTRLKEYGNYDSFYFDVWGAGTLVTVSS
VL: DIQMTQSPASLSVSVGDTITLTCHASQNIDVWLSWFQQKPGNIPKLLIYKASNLHTGVPSRFSGSGSGTGFTLTISSLQPEDIATYYCQQAHSYPFTFGGGTKLEIKR
notes: also called IL4mAb-huIgG1
koff [2]: 0.000161 s⁻¹
kon [2]: 1.04e+08 M⁻¹ s⁻¹
Kd [3]: 1.55 pM

B5: IL13 mAb (ID 3, anti-IL13-VL3-IGKC / anti-IL13-VH2-IGHG1) (antibody, human IgG1, kappa, V domains shown)
VH: EVQLKESGPGLVAPGGSLSITCTVSGFSLTDSSINWVRQPPGKGLEWLGMIWGDGRIDYADALKSRLSISKDSSKSQVFLEMTSLRTDDTATYYCARDGYFPYAMDFWGQGTSVTVSS
VL: DIVLTQSPASLAVSLGQRATISCRASESVDSYGQSYMHWYQQKAGQPPKLLIYLASNLESGVPARFSGSGSRTDFTLTIDPVQAEDAATYYCQQNAEDSRTFGGGTKLEIKR
notes: also called IL13mAb-huIgG1
koff [4]: 3.46e-05 s⁻¹
kon [4]: 1.28e+06 M⁻¹ s⁻¹
Kd [5]: 26.9 pM

B6: IL13 pseudo-IgG (ID 22) (antibody)
light: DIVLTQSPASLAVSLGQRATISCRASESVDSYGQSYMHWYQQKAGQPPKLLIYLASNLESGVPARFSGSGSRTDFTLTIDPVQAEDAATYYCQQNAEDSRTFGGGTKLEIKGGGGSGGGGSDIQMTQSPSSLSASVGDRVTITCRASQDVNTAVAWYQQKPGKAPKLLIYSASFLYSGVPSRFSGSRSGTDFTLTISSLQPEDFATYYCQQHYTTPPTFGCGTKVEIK
heavy: EVQLKESGPGLVAPGGSLSITCTVSGFSLTDSSINWVRQPPGKGLEWLGMIWGDGRIDYADALKSRLSISKDSSKSQVFLEMTSLRTDDTATYYCARDGYFPYAMDFWGQGTSVTVSSGGGGSGGGGSEVQLVESGGGLVQPGGSLRLSCAASGFNIKDTYIHWVRQAPGKCLEWVAEIYPTNGYTEYADSVKGRFTISADTSKNTAYLQMNSLRAEDTAVYYCSRWGGDGFYAMDYWGQGTLVTVSSDKTHTHHHHHH
notes: also called IL13 mAb Pseudo-IgG
koff [6]: 6.56e-07 s⁻¹
kon [4]: 1.54e+06 M⁻¹ s⁻¹
binding result [7]: no binding (tested: 100 nM)
Kd [5]: 0.425 pM

B7: anti-CD3ε-dsTrasKO2 × anti-CD123 (ID 38, alternative anti-CD3ε binding domain) (bispecific antibody, human IgG1, kappa, L234A L235A)
light 1: not shown
heavy 1: not shown
heavy 2: EVQLQQSGPELVKPGASVKMSCKASGYTFTDYYMKWVKQSHGKSLEWIGDIIPSNGATFYNQKFKGKATLTVDRSSSTAYMHLNSLTSEDSAVYYCTRSHLLRASWFAYWGQGTLVTVSAASTKGPSVFPLAPSSKSTSGGTAALGCLVKDYFPEPVTVSWNSGALTSGVHTFPAVLQSSGLYSLSSVVTVPSSSLGTQTYICNVNHKPSNTKVDKKVEPKSCDKTHTCPPCPAPEAAGGPSVFLFPPKPKDTLMISRTPEVTCVVVDVSHEDPEVKFNWYVDGVEVHNAKTKPREEQYNSTYRVVSVLTVLHQDWLNGKEYKCKVSNKALPAPIEKTISKAKGQPREPQVCTLPPSRDELTKNQVSLSCAVKGFYPSDIAVEWESNGQPENNYKTTPPVLDSDGSFFLVSKLTVDKSRWQQGNVFSCSVMHEALHNRFTQKSLSLSPG
light 2: DFVMTQSPSSLTVTAGEKVTMSCKSSQSLLNSGNQKNYLTWYLQKPGQPPKLLIYWASTRESGVPDRFTGSGSGTDFTLTISSVQAEDLAVYYCQNDYSYPYTFGGGTKLEIKRTVAAPSVFIFPPSDEQLKSGTASVVCLLNNFYPREAKVQWKVDNALQSGNSQESVTEQDSKDSTYSLSSTLTLSKADYEKHKVYACEVTHQGLSSPVTKSFNRGEC
Cytotox EC50 (dead CFSE/7-AAD double positive THP-1 target cells; human pan T cells, effector:target 10:1, 20 h) [8]: 0.95 pM
Kd [9]: 332 pM

B8: anti-TNP-dsTrasKO2 × anti-CD123 Negative control (ID 44) (bispecific antibody, human IgG1, kappa, L234A L235A)
light 1: not shown
heavy 1: not shown
heavy 2: EVQLQQSGPELVKPGASVKMSCKASGYTFTDYYMKWVKQSHGKSLEWIGDIIPSNGATFYNQKFKGKATLTVDRSSSTAYMHLNSLTSEDSAVYYCTRSHLLRASWFAYWGQGTLVTVSAASTKGPSVFPLAPSSKSTSGGTAALGCLVKDYFPEPVTVSWNSGALTSGVHTFPAVLQSSGLYSLSSVVTVPSSSLGTQTYICNVNHKPSNTKVDKKVEPKSCDKTHTCPPCPAPEAAGGPSVFLFPPKPKDTLMISRTPEVTCVVVDVSHEDPEVKFNWYVDGVEVHNAKTKPREEQYNSTYRVVSVLTVLHQDWLNGKEYKCKVSNKALPAPIEKTISKAKGQPREPQVCTLPPSRDELTKNQVSLSCAVKGFYPSDIAVEWESNGQPENNYKTTPPVLDSDGSFFLVSKLTVDKSRWQQGNVFSCSVMHEALHNRFTQKSLSLSPG
light 2: DFVMTQSPSSLTVTAGEKVTMSCKSSQSLLNSGNQKNYLTWYLQKPGQPPKLLIYWASTRESGVPDRFTGSGSGTDFTLTISSVQAEDLAVYYCQNDYSYPYTFGGGTKLEIKRTVAAPSVFIFPPSDEQLKSGTASVVCLLNNFYPREAKVQWKVDNALQSGNSQESVTEQDSKDSTYSLSSTLTLSKADYEKHKVYACEVTHQGLSSPVTKSFNRGEC
Kd [9]: 287 pM

B9: PD1 × IL13 bispecific (ID 26, anti-PD1-dsTrasKO2-Fc knob × anti-IL13-huIgG1 hole-RF) (bispecific antibody)
light 1: not shown
heavy 1: not shown
light 2: not shown
heavy 2: EVQLKESGPGLVAPGGSLSITCTVSGFSLTDSSINWVRQPPGKGLEWLGMIWGDGRIDYADALKSRLSISKDSSKSQVFLEMTSLRTDDTATYYCARDGYFPYAMDFWGQGTSVTVSSASTKGPSVFPLAPSSKSTSGGTAALGCLVKDYFPEPVTVSWNSGALTSGVHTFPAVLQSSGLYSLSSVVTVPSSSLGTQTYICNVNHKPSNTKVDKKVEPKSCDKTHTCPPCPAPELLGGPSVFLFPPKPKDTLMISRTPEVTCVVVDVSHEDPEVKFNWYVDGVEVHNAKTKPREEQYNSTYRVVSVLTVLHQDWLNGKEYKCKVSNKALPAPIEKTISKAKGQPREPQVCTLPPSRDELTKNQVSLSCAVKGFYPSDIAVEWESNGQPENNYKTTPPVLDSDGSFFLVSKLTVDKSRWQQGNVFSCSVMHEALHNRFTQKSLSLSPG
notes: PD1 arm is the pseudoFab (dsTrasKO2), IL13 arm the normal Fab
koff [10]: 0.0029 s⁻¹
kon [10]: 131000 M⁻¹ s⁻¹
koff [4]: 1.66e-05 s⁻¹
kon [4]: 2.92e+06 M⁻¹ s⁻¹
Kd [11]: 22100 pM
Kd [5]: 5.68 pM

Reference: patent US20230391888A1 (Sanofi, published 2023)
